Experiment [1] concerns the target ZIKV NS1 β-ladder domain (NS1 172-352) T233A mutant (Zika virus, strain Suriname). Description: AUC; sedimentation velocity, 2.95 mg/mL, 20 mM Hepes pH 7.4, 150 mM NaCl, 20 °C, 53,000 rpm, interference optics, continuous c(s) model in SEDFIT.
Experiment [2] deals with ZIKV NS1 β-ladder domain (NS1 172-352), strain Suriname (Zika virus, strain Suriname). Described as above.

In the case of “ZIKV NS1 β-ladder domain (NS1 172-352) T233A mutant (domain or fragment)”, in experiment [1], the percent of the protein in the monomeric state was above 49% and the stoichiometry N (commonly the number of molecules, sites or subunits per partner or assembly) is 2.
On to “ZIKV NS1 β-ladder domain (NS1 172-352), strain Suriname (domain or fragment)”, for which, in experiment [2], the percent of the protein in the monomeric state came to 7.8% and the stoichiometry N turned out to be 2.
